{
  "source": "patent US5502166",
  "about": "“NMDH receptor proteins and genes encoding the same” (Mitsubishi Chemical Corporation, dated 1996)",
  "biological_target": "ζ1 NMDA type glutamate receptor subunit (mouse, wild type) (mouse, UniProt P35438)",
  "experiment": "cell-based or functional assay",
  "data": [
    {"binder": "glutamate receptor ε3 subunit (mouse NMDA type glutamate receptor channel subunit) (receptor) not shown", "values": [
      {"measurement": "inward current at a membrane potential of -70 mV, Xenopus oocytes, 10 µM L-glutamate and 10 µM glycine, frog standard Ringer's solution", "result": 191, "unit": "nA"}
    ]}
  ]
}
